Measured values: article PMC3464278, “Structural Characterization of the Complex of SecB and Metallothionein-Labeled proOmpA by Cryo-Electron Microscopy” (PLoS ONE, 2012)

Target: the molecule itself
Test: cryo-EM structure; SecB/pOA1MTAu complex from gel filtration, vitrified on holey carbon grids, FEI Tecnai F20 at 200 kV; single particle analysis (EMAN), 19562 particles; about 20 Å; SecB crystal structure docked manually

B1: SecB (natural protein, E. coli)
chain: MSEQNNTEMTFQIQRIYTKDISFEAPNAPHVFQKDWQPEVKLDLDTASSQLADDVYEVVLRVTVTASLGEETAFLCEVQQGGIFSIAGIEGTQMAHCLGAYCPNILFPYARECITSMVSRGTFPQLNLAPVNFDALFMNYLQQQAGEGTEEHQ
notes: SecB, molecular chaperone of the Sec pathway, E. coli; also called molecular chaperon SecB; E. coli SecB; source: prepared as described previously [26]
B1: binds.
